Test results reported in the DeepSol protein solubility set.

test: soluble on expression in E. coli; label from the status in PepcDB or PDB records

Row | Sequence | soluble on expression in E. coli
1 | MSATEKDKTPLLGVSQPISLAHPDSKDIAQTTLLIETLKKFGSYEPKEETEQRMEVLRNLNRLVKEWVKNVTAMKIPNGEGVNAGGKLFTFGSYRLGVHSSGADIDTLAVVPRHIDRSDFFTSFKEMLNNDPNVTELHGVEEAFVPVMKLKYSGVELDILFARLALKEVPDTQELSDDNLLRNLDQESVRSLNGCRVAEQLLKLVPRQKEFCVTLRAIKLWAKNHGIYSNSMGFFGGITWAILVARACQLYPNASPSRLVHRMFFIFSTWTWPHPVVLNEMNNDRNDIPTLCELVWDPRRKNTDRFHVMPIITPAFPEQNSTHNVTRSTATVIKNEICEALEICRDISEGKSKWTALFEEVNFFSRYKHFIALIMAAPNEEEELNYGGFLESRIRLLVQSLERNQDIIIAHNDPNKHKPSPNAKFDVNPENKRVTVWFIGLEFAEHAKTLDLTNEIQRFKTNVELQASNVKGIGPNCQVQIDMFYVKRNSLIQVISAADLRRGRRWKKVVPIATNTSVSSSTPRSVVRTTSTSSVPTTPTGLAAPKTPLSASVSATNEPDSTTNGTPLSRKRSMDEESSTTVTSQISDESVPKKKTRDDTLEENRVSMVVEVSNVVVEQRTKVVQEIVDLQADNGLNTSNGLEASEQKMEVPQSV | not soluble
2 | MSAVEQFVSYCRDEIEIVARLVDLLEQEQKLLIRGESLQLEPLADRKSEVLDQLAAQSAQRGRLMESLGVQDKDTLYIWLADKPSACKEWTRLEDAVNRAQSINQLNAAFVDERLAQVESSLDVLRTAAASTLGYGPDGQPPELVSGRRLLGSA | not soluble
3 | MSAYPKSYNPFDDDGEDEGARPAPWRDARDLPDGPDAPADRQQYLRQEVLRRAEATAASTSRSLALMYESEKVGVASSEELARQRGVLERTEKMVDKMDQDLKISQKHINSIKSVFGGLVNYFKSKPVETPPEQNGTLTSQPNNRLKEAISTSKEQEAKYQASHPNLRKLDDTDPVPRGAGSAMSTDAYPKNPHLRAYHQKIDSNLDELSMGLGRLKDIALGMQTEIEEQDDILDRLTTKVDKLDVNIKSTERKVRQL | soluble
4 | MSDAHVLKSRLEWGEPAFTILDVRDRSTYNDGHIMGAMAMPIEDLVDRASSSLEKSRDIYVYGAGDEQTSQAVNLLRSAGFEHVSELKGGLAAWKAIGGPTEGIIESRLEHHHHHH | not soluble
5 | MSDDPIAASQAVVLSQAQAQNSQYALARTFATQKVSLEESVLSQVTTAIQTAQEKIVYAGNGTLSDDDRASLATDLQGIRDQLMNLANSTDGNGRYIFAGYKTEAAPFDQATGGYHGGEKSVTQQVDSARTMVIGHTGAQIFNSITSNAVPEPDGSDSEKNLFVMLDTAIAALKTPVEGNNVEKEKAAAAIDKTNRGLKNSLNNVLTVRAELGTQLSELSTLDSLGSDRALGQKLQMSNLVDVDWNSV | soluble
6 | MSDEQIDKLVSRLDGALNRLGNVKKDHPLESSSNSKPTHQPKSPAPYRQKIEKLSAEVVDSNPYSRLMALQRMGIVNEYERIREKTVAVVGVGGVGSVVAEMLTRCGIGKLILFDYDKVEIANMNRLFYQPNQAGLSKVEAARDTLIHVNPDVQIEVHNFNITTMDNFDTFVNRIRKGSLTDGKIDLVLSCVDNFEARMAVNMACNEENQIWMESGVSENAVSGHIQYIEPGKTACFACVPPLVVASGIDERTLKRDGVCAASLPTTMAVVAGFLVMNTLKYLLNFGEVSQYVGYNALSDFFPRDSIKPNPYCDDSHCLQRQKEYEEKVANQPVDLEVEVPEEETVVHEDNEWGIELVNESEPSAEQSSSLNAGTGLKFAYEPIKRDAQTELSPAQAATHDFMKSIKDKLVEEAQNKGK | not soluble
7 | MSDKDEGTERLVALLERLGVNRWAARSEADDAVVNARNLVPMFLLLREVWKHVVREGDTSWLQKDARLLAQEPEAGWSDMRRALASLQAKGATAQELTDVVKGKQVSLLYDVFETLCDDDPDLEAEFSGIGWGVFETDAVGRPGRRMDRLFAPVVTLDPTGRCMGPRE | not soluble
8 | MSDKLFSIVTISFNQAQFLREAVESVLAQKGGDIEYIVVDPGSTDGSREILAEYRSAIDHLILEADHGPGDGLNKGFARANGRYGYFLNSDDFLLPGAIDIMRTLWQRHKNTDVLLCGAWMVDENRRPQRELRPSPVTLEKLLDGEAKIVQQGMSFRMDLFRKVGGFNVGNRTCWDYELLCDFLAAGAAVTQSEARLAAFRIHSASISGGIGGELATKRYLADLDSVYERLTGQKKKPEQRRRAVRLSKRLGSPSHVLLRMRELLAPWTLELRWQADHERKSRRLEHHHHHH | not soluble
9 | MSDKLPYKVADIGLAAWGRKALDIAENEMPGLMRMRERYSASKPLKGARIAGCLHMTVETAVLIETLVTLGAEVQWSSCNIFSTQNHAAAAIAKAGIPVYAWKGETDEEYLWCIEQTLYFKDGPLNMILDDGGDLTNLIHTKYPQLLPGIRGISEETTTGVHNLYKMMANGILKVPAINVNDSVTKSKFDNLYGCRESLIDGIKRATDVMIAGKVAVVAGYGDVGKGCAQALRGFGARVIITEIDPINALQAAMEGYEVTTMDEACQEGNIFVTTTGCIDIILGRHFEQMKDDAIVCNIGHFDVEIDVKWLNENAVEKVNIKPQVDRYRLKNGRRIILLAEGRLVNLGCAMGHPSFVMSNSFTNQVMAQIELWTHPDKYPVGVHFLPKKLDEAVAEAHLGKLNVKLTKLTEKQAQYLGMSCDGPFKPDHYRY | soluble
10 | MSDNDIIDDDVLNIEDMTGDDADLSAIEGDLNEIEEEQKKLKAIQNEMVGHMNLNTSSQSNSSQSLLTPEEKAEADAKSVYVGNVDYGATAEEIEQHFHGCGSVSRVTIQCDRFSGHPKGFAYVEFTEKEGMQNALAMTDSLLRGRQIKVDPKRTNKPGMSTTNRPPFRGRGGRGRGNVIVKYVYAGGFRPRGRGARRRPGFAPY | soluble
11 | MSDRKPVRGRHQARKRAVALLFEAEVRGISAAEVVDTRAALAEAKPDIARLHPYTAAVARGVSEHAAHIDDLITAHLRGWTLDRLPAVDRAILRVSVWELLHAADVPEPVVVDEAVQLAKELSTDDSPGFVNGVLGQVMLVTPQLRAAAQAVRGGA | soluble
12 | MSDRYRFTILGCGSSPGVPRPNGDWGACNPNNPKNKRYRSSLLVERIHKSGKKTTIVIDTGPDFRSQMIDACVNHLDAALYTHSHADHIHGIDDLRSYALAQKSLIDIYADSFTLRHLKNAFGYCFQTPKGSSYLPILKAHLINEDSQFIIQGQGGAIHVNTHLQLHGSIHSLGFRIGNVAYCTDVSQFPKKTLPKLMNLNVLIIEALQFKSHPSHLSVDQALQWIKYLQPKQAILTHMDRSLDYNEVINYLPPHVKPAYQGLIFEADA | not soluble
13 | MSDSDAMTDPNAVSYSNAIVVLCTAPDEASAQNLAAQVLGEKLAACVTLLPGATSLYYWEGKLEQEYEVQLLFKSNTDHQQALLTYIKQHHPYQTPELLVLPVRDGDKDYLSWLNASLL | not soluble
14 | MSEANIIHSRYGLRCEKLDKPLNLGWGLDNSAVLHCPGELPTGWLCDALDQIFIAAPQLSAVALPWAEWREEPQALTLFGQVKSDIIHRTAFWQLPLWLSSPANRASGEMVFDAEREIYFPQRPPRPQGEVYRRYDPRIRRMLSFRIADPVSDAERFTRWMNDPRVEYFWEQSGSLEVQTAYLERQLTGKHAFPLIGCFDDRPFSYFEIYWAAEDRIGRHYSWQPFDRGLHLLVGEQQWRGAHYVQSWLRGLTHYLLLDEPRTQRTVLEPRTDNQRLFRHLEPAGYRTIKEFDFPHKRSRMVMADRHHFFTEVGL | not soluble
15 | MSEATTTLDGWYCLHDLRSIDWAAWKTLSSDERGQAVSEFLNVVEKWNEVATAKKGSHAMYTVVGQKADIMLMILRPTMEELNEIETELNKTTLAEYMVPAYSYVSVVELSNYLPADEDPYQNPQILARLYPELPKANHICFYPMDKRRQGDDNWYMLPMEERKKMMYSHSKIGRQYAGKVRQVISGSVGFDDFEWGVTLFADDVLQFKKLIYEMRFDEVSARYGEFGTFFVGNILPDEKVEKFLHI | not soluble
16 | MSEDGEISLSPNSAALMDGLDDFIIDKNCSGIIPNEDLERETPSADDDAEVKTSSNWAKNMRKRMFGEQCDEPEESEKKRRRTNCCFNCRGGDHSIAQCPEPKNFAEIRKNKLEFMNDKQQQHQPTGRISQVTEQQQEAKFKPGRLSQNLRKALSLGPDDIPEWVYRMRRLGFYRGYPPGYLRKSLKREFATLKIYSEDHNQEEVDNDDDEEARPAPTIQSEKVHFYMGFNKTYGALRDRERGRFEVPPFDIFCEMLQTEVARDHEGTEKIRIREERHQRSELRKIREQQKEEEEQQQRDSAEKVEKEVTVDQTISEVAAAAAAVEEKPGTPEPVGRMGESISEFIGTPIFSRRDVTGTWIEDTVPSLEAFSVGIVPFEAKEEEKPRGIFKKIMSTLKGITGRNSGDDEMKKKE | not soluble
17 | MSEEDKAKKLENLLKLLQLNNDDTSKFTQEQKKAMKDHKFWRTQPVKDFDEKVVEEGPIDKPKTPEDISDKPLPLLSSFEWCSIDVDNKKQLEDVFVLLNENYVEDRDAGFRFNYTKEFFNWALKSPGWKKDWHIGVRVKETQKLVAFISAIPVTLGVRGKQVPSVEINFLCVHKQLRSKRLTPVLIKEITRRVNKCDIWHALYTAGIVLPAPVSTCRYTHRPLNWKKLYEVDFTGLPDGHTEEDMIAENALPAKTKTAGLRKLKKEDIDQVFELFKRYQSRFELIQIFTKEEFEHNFIGEESLPLDKQVIFSYVVEQPDGKITDFFSFYSLPFTILNNTKYKDLGIGYLYYYATDADFQFKDRFDPKATKALKTRLCELIYDACILAKNANMDVFNALTSQDNTLFLDDLKFGPGDGFLNFYLFNYRAKPITGGLNPDNSNDIKRRSNVGVVML | soluble
18 | MSEEHIAVTRFREYLRVNTEQPNPNYAACRDFLFKYADELGIARRSIETAPGVFLVIMTIPGSQPELPSIMLYSHTDVVPTFREHWTHDPYSAFKDEDGNIFARGAQDMKCVGVQQMEALRNLFAQGIRQWKRTIHLVWGPDEEIFGINGMKGFAKTDEFKKLNLGFSLDEGMPSDDDVYKVFYAERVAWWVKVTFPGNPGHGSQFMENTAMEKLERFLASARKFRNEQKVVLESNPNLTLGDVTTLNVNIVNGGVQFNVIPEKFEAYVDMRLTPHEDFNKIREMLDQWAKNAGEGVTYEFSQYSDQKPISAHTRDNSFWAAFEDSLNQENCKFEKGIMVASTDSRFVRYEGVNSINFSPMINTPFLPHDHNEYLNEKVFLRGLEIYQTIINNLGNV | not soluble
19 | MSEEIVLKAGGKIYQGWTKIGITRSLEAMSGAFDLEMTYKFLGNDAQYKAFIEPIKQGQACTVDIGGERVITGYVDDWVPSYDESTITISVSGRDKTADLVDCSIDYPSGQFNNQTLTQIADIVCKPFGIKVIVNTDVGEPFQRIQIEQGETPHELLARLAKQRGVLLTSDTFGNLVITRASKTKAGVSLILGDNVKAARGRFSWRQRFSKFTIKAAGAAHGQWDSAGLPTVGGIKADVTDSEIGRYRPLIIVNEEVTTAEGAAKRGQWERQRSIGKSNMAEYTVTGWRIPQTGKLWNINTLVPVIDEIMGLDEEMLIASILFSEDDAGRLAVISVVRPDAMDIPAQIVKDTKLGGSTW | soluble
20 | MSEGLSFVIQRHQARRLHYDFRLEIDGVLVSWAVPKGPSRDPSVKRLAVHVEDHPLEYGGFSGDIPKGQYGAGHVDIWDSGVWIPRGDPRQGLRRGKLHFALRGRRLAGDWVLVRMSGEQDQWLLRKEDDEALEHHHHHH | not soluble
21 | MSEHETAGEGRFNSIEIRVLGSLIEKQATSPESYPLTLNALVLACNQKTSREPVMNLTQGQVGQALRALEGQGMTRLQMGSRADRWEHRVDKALELVPAQLVLMGLMFLRGPQTLNELLTRSNRLHDFDDTEQIQHQLERLISRDLALHLPRQAGQREDRYTHALGDPAEIEAILAARQQEGGARTSGGSVSEDRIEALEARIAALEARLAELEG | not soluble
